Measurements reported in US20120122711A1, “SCREENING OF BIOPOLYMERS” (priority 2009, published 2012).
Each block holds one substance with its values, some of them ahead of it. Non-standard residues stand in square brackets, D forms with d. Primed or numbered codes have the meaning given here. No end group written: not given here. PEG2′ = PEG2 tether (Merck, 20 atoms)

Assays:
[1] = target: bovine carbonic anhydrase II (bovine) (UniProt P00921); assay: dot blot, biotinylated peptide on spotted bCAII
[2] = target: bovine carbonic anhydrase II (bovine) (UniProt P00921); assay: dot blot, peptide with biotin at C-terminus on spotted bCAII
[3] = target: T1, bovine carbonic anhydrase II (bCAII) (Bos taurus, UniProt P00921); assay: Surface Plasmon Resonance (SPR) of peptide ligands on immobilized bCAII; format: binding; conditions: for response in SPR sensogram, in words: compared with other peptide ligands; for maximum response (Rmax): highest concentration (1.0 μM), bCAII immobilized to RU of 1000, FIG. 14; for interaction with bCAII: acetylated peptides, FIG. 9; for association-dissociation pattern in SPR sensogram: in words
From the text: Validation by SPR. The peptide ligands were investigated for their binding affinity towards bCAII using SPR as a validation tool. The target marker was immobilized onto CM5 sensor chip to a response unit (RU) of 1000 in a Biacore T100 system. Each peptide solution of a series of concentrations was eluted through the surface of the chip to observe the response as well as the dissociation pattern mediated by treatment of glycine-hydrochloride. As depicted in FIG. 14, the maximum responses (Rmax) by the peptide ligands increased in a stepwise fashion from the hexamer-2 to the decamers and then to the tetradecamer (8→40→140) at the highest concentration (1.0 μM).
Surface Plasmon Resonance (SPR) experiments to measure affinity of the re-synthesized peptide ligands. Affinity measurements were performed using a Biacore T100 system and research grade CM5 sensor chips (GE Heathcare). The instrument was primed with HBS-EP+ (GE Heathcare) buffer. Flow cell 1 (or 3) was used as a reference to subtract nonspecific binding, drift, and the bulk refractive index, while flow cell 2 (or 4) was immobilized with the target biomarker (bCAII) following standard procedures. A 1:1 mixture of 0.4 M EDC and 0.1 M NHS was used to activate flow cell 2 (or 4), and 0.1 mg/mL bCAII solution was injected. Blocking of the remaining activated groups was done with a 1 M solution of ethanolamine (pH 8.5). bCAII was immobilized onto the sensor chip surface by […] (RU). The instrument was then primed using running buffer (HBS-EP+). Each of the 6mer ligand candidates identified were dissolved in HBS-EP+buffer to produce 5 μM peptide stock solutions for each peptide, which were serially diluted by a factor of 2 to produce a concentration series down to 2 nM. For a given affinity measurement, these series of peptide solutions successively were injected into flow cell 2 (or 4) for […] of contact time, 5 min of dissociation time, and […] of stabilization time using a flow rate of 100 μL/min at 25° C. Flow cell 2 (or 4) was regenerated by glycine 2.5 (GE Healthcare) after injection of each peptide solution.

[4] = target: T1, bovine carbonic anhydrase II (bCAII); assay: Dot blot assay of biotin-conjugated peptide ligands on deposited bCAII; format: binding; conditions: for dot blot affinity/potency towards bCAII, in words: serial reduction of deposited bCAII, peptide 0.5 μM, compared with precursor
Method: Dot blot assays to measure affinity of the re-synthesized peptide ligands conjugated to biotin. […] A solution of bCAII was prepared as 10 mg/mL stocks in PBS buffer (pH 7.4). A serial dilution of the mother solution was applied to a nitrocellulose membrane, typically ranging from 2 μg to 5 ng per spot. The membrane was blocked at room temperature for 2 h in 5% nonfat milk/TBS-T. The membrane was then washed with TBS-T. […] After washing three times with TBS-T for 10 min, 1:3000 streptavidin-HRP (Abcam) prepared in 0.5% milk/TBS-T was added to the membrane and incubated for 2 h. After washing three times with TBS-T for 10 min, the membrane was treated with chemiluminescent reagents (Amersham ECL plus Western blotting detection reagents, GE Healthcare) and then immediately developed on film.

[5] = target: human carbonic anhydrase II (hCAII) (Homo sapiens, UniProt P00918); assay: Dot blot experiments of peptide ligands towards hCAII; format: binding; conditions: FIG. 9

T1 sequence (P00921 whole entry): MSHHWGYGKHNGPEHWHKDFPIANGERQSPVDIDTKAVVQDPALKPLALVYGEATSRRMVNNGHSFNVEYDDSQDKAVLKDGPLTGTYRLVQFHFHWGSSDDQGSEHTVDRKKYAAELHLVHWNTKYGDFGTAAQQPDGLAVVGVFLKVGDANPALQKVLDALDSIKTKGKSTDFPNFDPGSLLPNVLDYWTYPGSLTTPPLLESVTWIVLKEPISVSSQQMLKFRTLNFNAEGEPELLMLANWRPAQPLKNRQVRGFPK
Sequence of bovine carbonic anhydrase II (bovine) (P00921 2-260 limits assumed): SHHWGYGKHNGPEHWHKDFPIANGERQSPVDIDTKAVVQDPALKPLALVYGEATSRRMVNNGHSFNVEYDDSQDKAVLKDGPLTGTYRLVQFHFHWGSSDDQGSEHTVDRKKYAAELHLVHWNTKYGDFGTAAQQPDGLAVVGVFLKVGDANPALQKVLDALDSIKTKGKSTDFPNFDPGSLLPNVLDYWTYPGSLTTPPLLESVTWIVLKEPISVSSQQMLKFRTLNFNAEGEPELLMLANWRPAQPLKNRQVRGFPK

Substance: ifvykr ([dI][dF][dV][dY][dK][dR]) [hexamer-2]
response in SPR sensogram, in words [3]: even better property than hexamer-1
maximum response (Rmax) [3]: 8 RU
dot blot affinity/potency towards bCAII, in words [4]: even better property than hexamer-1

Substance: ifvykr-wryp ([dI][dF][dV][dY][dK][dR][dW][dR][dY][dP]) [decamer-4, 11]
dot blot affinity/potency towards bCAII, in words [4]: most prominent

Substance: kvtflhrywf (Ac-[dK][dV][dT][dF][dL][dH][dR][dY][dW][dF]-NH2) [decamer-N1, 8, D-amino acids, acetylated]
dot blot potency towards hCAII compared with bCAII [5]: similarly potent
interaction with bCAII [3]: interacting with bCAII
response in SPR sensogram, in words [3]: higher response unit (RU)
association-dissociation pattern in SPR sensogram [3]: much more antibody-like behavior
dot blot affinity/potency towards bCAII, in words [4]: more potent

Substance: ryrr-ifvykr ([dR][dY][dR][dR][dI][dF][dV][dY][dK][dR]) [decamer-3, 10]
dot blot affinity/potency towards bCAII, in words [4]: most prominent

Further lines, results first:

lowest amount of deposited bCAII giving a developed spot [1]: 20 ng
Substance: decamer-3 (ryrr-ifvykr) (peptide)

lowest amount of deposited bCAII giving a developed spot [2]: 20 ng
Substance: decamer-4 (ifvykr-wryp) (peptide)

dot blot potency towards hCAII compared with bCAII [5]: more potent
interaction with bCAII [3]: interacting with bCAII
affinity (KD) in a Surface Plasmon Resonance (SPR) study ([3]; first-generation anchor peptide against bCAII): a few
Substance: lhrywf [hexamer-1]

maximum response (Rmax) [3]: 140 RU
association-dissociation pattern in SPR sensogram [3]: more antibody-like pattern
dot blot affinity compared with the two precursors decamer-N2 and decamer-C2 ([4]; peptide ligand 0.1 μM): not dramatically improved
dot blot potency compared with initial anchor hexamer-2 ([4]; peptide ligand 0.1 μM): far more potent
Substance: ryrr-ifvykr-wryp ([dR][dY][dR][dR][dI][dF][dV][dY][dK][dR][dW][dR][dY][dP]-{PEG2′-biotin}) [tetradecamer-N2C, 12]
